Biological target: SARS-CoV RBD (SARS-CoV (P59594; strain ), UniProt P59594)
Experiment: ELISA
Conditions: both partners purified

B1: S2M11 human monoclonal antibody (IgG) (antibody, V domains shown)
VH: EVQLVQSGAEVKKPGASVKVSCKASGYTFTGYYMHWVRQAPGQGLEWMGWINPISSGTSYAQTFQGRVTMTSDTSITTAYMELSRLRSDDTAVYYCARAAPFYDFWSGYSYFDYWGQGTLVTVSS
VL: not shown
notes: also called S2M11 IgG; S2M11 mAb; copies: 2 + 2
B1: no binding.

B2: S2E12 human monoclonal antibody (IgG) (antibody, V domains shown)
VH: not shown
VL: DIVLTQTPGTLSLSPGERATLSCRASQSVSSSYLAWYQQKPGQAPRLLIYGASSRATGIPDRFSGSGSGTDFTLTISRLEPEDFAVYYCQQYVGLTGWTFGQGTKVEIK
notes: also called S2E12 IgG; S2E12 mAb; copies: 2 + 2
B2: no binding.
